Assay results reported in paper PMC12182672.

Biological target: host plasminogen (Plg), porcine (pig)
Test: ELISA; microtiter plates coated with 0.8 ug/well Plg in 50 mM carbonate-bicarbonate buffer pH 9.8; His-tagged proteins added at 1 ug/mL; detected with His-tag monoclonal antibody and HRP anti-mouse; OD450

**Q.** For “truncated rMhp390(27-247) (domain or fragment)”, which fold binding activity (OD450) over the negative control rNOD1 is on record?
**A.** 2.56 fold

**Q.** “truncated rMhp390(425-604) (domain or fragment)” was tested. Which fold binding activity (OD450) over the negative control rNOD1 did it give?
**A.** 2.68 fold
